Source: US20150299726A1, “AHAS MUTANTS” (BASF PLANT SCIENCE GMBH, priority 2007, published 2015)

System: AHAS minus E. coli
Assay: E. coli complementation assay, Arabidopsis AHASL mutants (AE plasmids) with imazethapyr
Format: cell-based
Conditions: colony size scored visually in the presence of imazethapyr
From the text: Vectors AE10 through AE24 were made as follows. The wild type Arabidopsis thaliana AHAS large subunit gene was amplified under mutagenic conditions using the Genemorph II random mutagenesis kit (Stratagene, La Jolla, Calif.), resulting in randomly mutagenized amplified DNA fragments of this gene. This mutant DNA was then cloned back into AE7, replacing the wild type A. thaliana large subunit gene (between the unique SacII and AgeI sites on AE7) with the mutagenized forms. This DNA was transformed into E. coli strain TOP10 and selected on LB agar medium in such a fashion as to have a large number of unique transformants, each with independent, mutagenized AHAS genes. These colonies were scraped together and plasmid DNA was prepared from this entire primary library. This DNA was transformed into AHAS minus E. coli and again selected on LB agar media with carbenicillin. Plasmid positive colonies from this step were replica plated using velveteen onto minimal agar medium without branched chain amino acids and containing 30-micromolar imazethapyr.
The DNA sequence of the A. thaliana AHAS large subunit gene was determined for each of the growth positive colonies. […] Because the AHAS function and imidazolinone tolerance screen was on a secondary library, replicates of the same mutations were found, as determined by DNA sequence analysis. […]

B1: AE7: E. coli expression plasmid, Arabidopsis AHASL wild type (protein, UniProt P17597 56-670, looked up)
Acetolactate synthase, …: SSSPSSISAVLNTTTNVTTTPSPTKPTKPETFISRFAPDQPRKGADILVEALERQGVETVFAYPGGASMEIHQALTRSSSIRNVLPRHEQGGVFAAEGYARSSGKPGICIATSGPGATNLVSGLADALLDSVPLVAITGQVPRRMIGTDAFQETPIVEVTRSITKHNYLVMDVEDIPRIIEEAFFLATSGRPGPVLVDVPKDIQQQLAIPNWEQAMRLPGYMSRMPKPPEDSHLEQIVRLISESKKPVLYVGGGCLNSSDELGRFVELTGIPVASTLMGLGSYPCDDELSLHMLGMHGTVYANYAVEHSDLLLAFGVRFDDRVTGKLEAFASRAKIVHIDIDSAEIGKNKTPHVSVCGDVKLALQGMNKVLENRAEELKLDFGVWRNELNVQKQKFPLSFKTFGEAIPPQYAIKVLDELTDGKAIISTGVGQHQMWAAQFYNYKKPRQWLSSGGLGAMGFGLPAAIGASVANPDAIVVDIDGDGSFIMNVQELATIRVENLPVKVLLLNNQHLGMVMQWEDRFYKANRAHTFLGDPAQEDEIFPNMLLFAAACGIPAARVTKKADLREAIQTMLDTPGPYLLDVICPHQEHVLPMIPSGGTFNDVITEGDGRIKY
  E. coli Imazethapyr Tolerance Score: − (IN)
